Test results published in patent US5981262.

Molecular target: phosphopeptide of SEQ ID NO: 32, containing the PI3K ligand pY.V.P.M.L. (SEQ ID NO: 31)
Assay: SPR (BIAcore); phosphopeptide immobilized via its C-terminal lysine, SH2 peptide injected at 0.5, 0.67, 1.0, 2.0 and 4.0 uM

Ka (binding affinity, printed in nM): 160 nM
Substance: N-terminal SH2 peptide of the PI3K p85
